Measured values reported in publication PMC5546430.

Biological target: T1, human TMEM192 with a C-terminally fused HA epitope (human), Q8IY95
T1 chain: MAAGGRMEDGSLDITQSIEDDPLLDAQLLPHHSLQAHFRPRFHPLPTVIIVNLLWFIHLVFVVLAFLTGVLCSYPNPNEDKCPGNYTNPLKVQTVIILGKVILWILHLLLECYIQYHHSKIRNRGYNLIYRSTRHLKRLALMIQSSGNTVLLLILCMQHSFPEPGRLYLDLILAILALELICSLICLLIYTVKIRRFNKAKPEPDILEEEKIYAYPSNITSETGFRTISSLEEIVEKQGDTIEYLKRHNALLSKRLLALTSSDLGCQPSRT
Test: non-reducing SDS-PAGE and Western blot; total lysates of transiently transfected HeLa cells denatured 5 min at 95°C in the absence of DTT; detection with anti-HA antibody 3F10; shows only disulphide-linked dimers
Details: remark: other sources report otherwise

B1: human TMEM192 with a C-terminally fused HA epitope, Q8IY95 1-271 (natural protein)
chain: MAAGGRMEDGSLDITQSIEDDPLLDAQLLPHHSLQAHFRPRFHPLPTVIIVNLLWFIHLVFVVLAFLTGVLCSYPNPNEDKCPGNYTNPLKVQTVIILGKVILWILHLLLECYIQYHHSKIRNRGYNLIYRSTRHLKRLALMIQSSGNTVLLLILCMQHSFPEPGRLYLDLILAILALELICSLICLLIYTVKIRRFNKAKPEPDILEEEKIYAYPSNITSETGFRTISSLEEIVEKQGDTIEYLKRHNALLSKRLLALTSSDLGCQPSRT
B1 was tested, and the stoichiometry N was 2.
